Assay [1] concerns the target Recombinant Human GRP75/HSPA9B/Mortalin His Protein (human) (UniProt P38646). Briefly: SPR. On the technique in general: SPR reads the build-up and loss of mass on a sensor chip optically.
Assay [2] deals with Recombinant Human Vimentin Protein, CF (human) (UniProt P08670). Briefly: SPR.

Data on one substance can be found in publication PMC12469269, “Investigating SMR Peptide Interactions with Breast Cancer-Associated Proteins” (International Journal of Molecular Sciences, 2025).

Recombinant Human Vimentin Protein, CF (human), sequence (P08670 whole entry): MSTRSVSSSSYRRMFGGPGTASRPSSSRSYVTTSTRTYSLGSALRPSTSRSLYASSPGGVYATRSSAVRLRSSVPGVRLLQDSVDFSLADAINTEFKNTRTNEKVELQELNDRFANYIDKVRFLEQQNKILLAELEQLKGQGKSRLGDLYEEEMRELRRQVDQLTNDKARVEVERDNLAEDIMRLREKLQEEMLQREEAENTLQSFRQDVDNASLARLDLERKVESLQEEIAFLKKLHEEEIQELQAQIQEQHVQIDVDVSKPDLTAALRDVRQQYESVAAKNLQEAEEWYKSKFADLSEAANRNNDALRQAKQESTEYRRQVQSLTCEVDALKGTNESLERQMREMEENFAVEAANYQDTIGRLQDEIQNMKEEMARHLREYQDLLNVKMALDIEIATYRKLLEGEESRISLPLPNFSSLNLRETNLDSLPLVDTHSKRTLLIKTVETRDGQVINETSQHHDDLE
Recombinant Human GRP75/HSPA9B/Mortalin His Protein (human), sequence (P38646 47-679): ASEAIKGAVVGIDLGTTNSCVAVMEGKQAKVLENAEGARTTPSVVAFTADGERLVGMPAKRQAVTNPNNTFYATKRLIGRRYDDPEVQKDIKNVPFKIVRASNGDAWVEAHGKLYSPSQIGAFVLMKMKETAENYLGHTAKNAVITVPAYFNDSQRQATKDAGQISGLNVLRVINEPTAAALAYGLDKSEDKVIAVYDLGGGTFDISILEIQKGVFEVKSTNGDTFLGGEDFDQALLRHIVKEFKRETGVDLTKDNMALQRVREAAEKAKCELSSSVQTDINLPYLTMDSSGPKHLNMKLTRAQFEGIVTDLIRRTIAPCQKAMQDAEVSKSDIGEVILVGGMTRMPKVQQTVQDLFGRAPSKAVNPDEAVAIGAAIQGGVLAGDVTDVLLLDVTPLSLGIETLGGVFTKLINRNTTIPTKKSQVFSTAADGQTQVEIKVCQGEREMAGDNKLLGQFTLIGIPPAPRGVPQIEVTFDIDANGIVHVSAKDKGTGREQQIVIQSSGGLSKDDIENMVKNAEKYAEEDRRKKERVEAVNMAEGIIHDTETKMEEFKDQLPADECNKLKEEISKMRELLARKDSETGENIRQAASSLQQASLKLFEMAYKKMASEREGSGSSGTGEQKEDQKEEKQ

For SMRwt peptide, the Kd (in general, the constant that tells how readily two partners part at equilibrium) was determined as 20.7 µM in assay [1] and 6.63 µM in assay [2].
